Entries after “also recorded” stand apart in the source; their conditions may differ.
Key:
[1] = target: T1, human SAP (Homo sapiens, UniProt P02743); test: Biacore kinetics, human SAP captured on immobilised O-phosphoethanolamine; format: binding; conditions: CM5 chip, calcium; bivalent analyte model; 25° C.; for comparison only, avidity effect
T1 construct: from tissue; host or cells: natural human SAP, purified
Method: O-phosphoethanolamine was immobilised on a Biacore CM5 chip by primary amine coupling in accordance with the manufacturer's instructions. Human SAP was then captured on the surface in the presence of calcium chloride, in order to replicate in the Biacore system in vitro, the precise orientation of SAP molecules bound to amyloid fibrils in vivo. Anti SAP antibodies were then passed over this surface at 256, 64, 16, 4, 1 nM and a binding sensorgrams obtained. Analysis was carried out at 25° C. using 4% BSA, 10 mM Tris, 140 mM NaCl, 2 mM CaCl2, 0.05% surfactant P20, 0.02% Na N3, pH 8.0 as running buffer. […] Data generated were double referenced with a buffer injection over the human SAP surface and analyzed using the bivalent analyte model in the Biacore T100 evaluation software.

[2] = target: T1, human SAP; test: Competition ELISA with chimeric anti-SAP mAb; format: binding; conditions: human SAP coated at 1 μg/mL; purified murine mAb
Source text: A constant concentration of chimeric anti-SAP mAb was mixed with serial diluted (1:1) amounts of mouse anti-SAP mAbs. Plates were washed and the amount of chimeric antibody bound to the immobilised human SAP was detected using goat anti-human Kappa Light chain peroxidase conjugate (Sigma, A7164). The ELISA was developed using O-phenylenediamine dihydrochloride (OPD) peroxidase substrate (Sigma, P9187).

[3] = target: T1, human SAP; test: Western blotting and fragment epitope mapping (CNBr, chymotrypsin); format: binding
Source text: This is consistent with the kinetic stability and resistance to denaturation of SAP (Manning, M. and Colón, W. (2004) Biochemistry, 43: 11248-11254).
B, SDS-PAGE analysis of SAP cleaved with CNBr. […] These were precisely confirmed by mass spectrometry. […] C, SDS-PAGE analysis of SAP digested with chymotrypsin. Left panel: Coomassie blue stain; lane 1, untreated control SAP; lane 2, SAP after chymotrypsin digestion, showing the expected major fragments corresponding to residues 1-140 and 145-204. These were precisely confirmed by mass spectrometry. Right panel: Western blot with SAP-E showing intense staining of intact untreated SAP in lanes 1 (500 ng loaded) and 2 (100 ng), and also residual intact SAP in lanes 3 and 4 which contained the chymotrypsin digested SAP at different loadings. Very weak binding of SAP-E to the residue 1-140 fragment is seen only in lane 3 which was most heavily loaded. […] D, Sequence comparison between human SAP (h) and mouse SAP (m) for residues 136-147. Top panel, differences indicated above by residues shown in black in the murine sequence. Bottom panel, position of this extended loop with 140Y at its apex shown in white in the 3D subunit structure of human SAP. The different residues in the murine sequence are shown in black. The grey spheres represent the calcium atoms bound in the ligand binding pocket.

[4] = target: T2, human CRP (Homo sapiens, UniProt P02741); test: Western blotting against CRP; format: binding; conditions: western blot, 500 ng and 100 ng loaded
T2 sequence (P02741 19-224): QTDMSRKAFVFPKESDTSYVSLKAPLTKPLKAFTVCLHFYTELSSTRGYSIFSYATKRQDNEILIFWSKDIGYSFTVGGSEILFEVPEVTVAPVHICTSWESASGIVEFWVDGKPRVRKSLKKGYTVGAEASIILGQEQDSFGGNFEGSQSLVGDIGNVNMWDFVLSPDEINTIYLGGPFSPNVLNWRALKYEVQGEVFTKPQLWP

[5] = tested on: mice with systemic AA amyloidosis; test: Low dose SAP-E and SAP-K in clearing systemic AA amyloid deposits (Example 17); format: in vivo, mouse; conditions: low doses
Method: AA amyloidosis was induced and confirmed in wild-type C57BL/6 mice as detailed in Example 10 above. After loading the amyloid deposits with human SAP as also detailed in Example 10, groups of mice (n=10 each) were treated with single doses of either 0.5 mg and 1 mg per mouse of the two different antibodies, or 6 repeated doses of 0.15 mg, given at 3 or 4 day intervals. […] All were killed on day 29 for estimation of amyloid load by Congo red staining.

[6] = target: T3, native human SAP (Homo sapiens, UniProt P02743); test: Double immunodiffusion in agarose gel; format: binding; conditions: isolated pure human SAP and whole human serum
T3 construct: against both isolated pure human SAP and whole human serum; from tissue; host or cells: whole human serum, and isolated pure human SAP

[7] = target: T1, human SAP; test: Binding of mouse monoclonals to immobilised human SAP in vitro
Source text: SAP-E and SAP-K are from two groups of anti-SAP monoclonals, each group having been tested separately for their binding to human SAP in vitro.
(§1) SAP-K was selected from among the 6 different, most avidly binding, mouse IgG2a monoclonals, derived by standard techniques from immunization with purified human SAP and a conventional fusion to produce hybridomas which were cloned by routine methods. […] This was the case regardless of whether the human SAP had been directly immobilised on plastic surfaces by non-specific adherence or by covalent attachment, or by the specific calcium dependent binding of SAP to immobilised ligands, whether amyloid fibrils or the small molecule ligand, phosphoethanolamine. SAP-K also bound well to directly immobilised SAP in the presence or absence of calcium, and if the SAP had previously been complexed with CPHPC and then covalently ‘fixed’ in the decameric SAP-CPHPC complex (Pepys, M. B. et al (2002) Targeted pharmacological depletion of serum amyloid P component for treatment of human amyloidosis. Nature, 417: 254-259; Kolstoe, S. E. et al (2009) Molecular dissection of Alzheimer's disease neuropathology by depletion of serum amyloid P component. Proc. Natl. Acad. Sci. USA, 106: 7619-7623). SAP-E also bound well to human SAP in all these different configurations.

[8] = target: T1, human SAP; test: Biacore (BIAcoreX), human SAP covalently immobilised on the chip; format: binding; conditions: mean and SD of 3 replicate measurements
[9] = target: T1, human SAP; test: Immunoradiometric assay, human SAP captured by immobilised sheep polyclonal anti-human SAP antibody; format: binding; conditions: all levels of human SAP input; mean of 3 replicates
Source text: as §1
Each point is the mean of 3 replicates.

[10] = tested on: mice with systemic AA amyloidosis; test: SAP-E versus SAP-K in clearing systemic AA amyloid deposits (Example 16); format: in vivo, mouse; conditions: lower doses
Method: AA amyloidosis was induced and confirmed in wild-type C57BL/6 mice as detailed in Example 10 above. After loading the amyloid deposits with human SAP also detailed in Example 10, groups of mice were treated with 3 mg and 1 mg per mouse of the two different antibodies. […] All mice were bled for assay of circulating anti-SAP antibody at days 1, 5 and 15 after dosing with antibody, and all were killed on day 21 for estimation of amyloid load by Congo red staining. All sera were assayed for anti-SAP activity using a robust immunoradiometric assay standardised with purified SAP-E and SAP-K respectively, spiked at known concentrations into normal mouse serum.
Amyloid load was scored by four independent expert observers all blinded to the identity of each tissue examined. The scores of all observers were, as usual highly concordant and for statistical analysis, the total scores of all observers for both spleen and liver for each mouse were summed.

T1 sequence (P02743 20-223): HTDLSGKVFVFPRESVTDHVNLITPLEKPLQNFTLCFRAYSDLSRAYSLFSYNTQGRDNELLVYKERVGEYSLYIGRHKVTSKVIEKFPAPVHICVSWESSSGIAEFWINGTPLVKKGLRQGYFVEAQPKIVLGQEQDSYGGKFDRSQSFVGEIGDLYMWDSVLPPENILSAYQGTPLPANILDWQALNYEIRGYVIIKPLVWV
T3 sequence (P02743 20-223): as above

B1: SAP-E: mouse IgG2a monoclonal anti-human SAP antibody, VH SEQ ID NO:7, VL SEQ ID NO:9 (antibody, V domains shown)
VH: QASLQQSGTELVRSGASVKMSCKASGFTFATYNMHWIKQTPGQGLEWIGYIYPGDGNANYNQQFKGKATLTADTSSNTAYMQISSLTSEDSAVYFCARGDFDYDGGYYFDSWGQGTTLTVSS
VL: DIQMTQSPASLSASVGETVTITCRASENIYSYLAWYQQKQGRSPQLLVHNAKTLAEGVPSRVSGSGSGTHFSLKINGLQPEDFGNYYCQHHYGAPLTFGAGTKLELK
ka [1]: 31500 M⁻¹ s⁻¹
kd [1]: 1.51e-08 s⁻¹
competition with SAP-K chimera [2]: no competition
binding to native human SAP in western blotting ([3]; after agarose gel electrophoresis in physiological buffers): bound
binding to human SAP in western blotting from reduced SDS-PAGE ([3]; denatured human SAP): only SAP-E bound
epitope recognised ([3]; residues of human SAP, CNBr and chymotrypsin fragments): region 140-158
reaction with isolated pure human CRP [4]: did not react at all
potency in clearing amyloid, SAP-E compared with SAP-K [5]: again apparently more potent than SAP-K
binding to native human SAP (immunoprecipitation) [6]: bound apparently equally well to native human SAP
binding to immobilised human SAP ([7]; abundant immobilised SAP, coating solution 100 μg/ml): more binding of SAP-E than SAP-K
binding to human SAP in vitro ([7]; compared within the group of monoclonals): strongest binding to SAP, within their groups
kd [8]: 6 ± 4 × 10^−5 sec^−1
binding to human SAP captured by sheep polyclonal anti-human SAP [9]: SAP-E bound better than SAP-K at all levels of human SAP input; also recorded: Substantially more SAP-E than SAP-K bound at all concentrations of human SAP offered
potency in clearing amyloid, SAP-E compared with SAP-K [10]: apparently more potent than SAP-K at the lower doses

Reference: patent US9434716B2, “Antigen binding proteins” (Glaxo Group Limited, priority 2011, dated 2016)
